The values that follow come from paper doi:10.1101/2020.05.01.070730 (bioRxiv, 2020).

Where two headings read alike, the source gives them in different places.

For data set [1], the target named is T1, MutS E. coli (Escherichia coli, UniProt P23909 1-853).
T1 sequence: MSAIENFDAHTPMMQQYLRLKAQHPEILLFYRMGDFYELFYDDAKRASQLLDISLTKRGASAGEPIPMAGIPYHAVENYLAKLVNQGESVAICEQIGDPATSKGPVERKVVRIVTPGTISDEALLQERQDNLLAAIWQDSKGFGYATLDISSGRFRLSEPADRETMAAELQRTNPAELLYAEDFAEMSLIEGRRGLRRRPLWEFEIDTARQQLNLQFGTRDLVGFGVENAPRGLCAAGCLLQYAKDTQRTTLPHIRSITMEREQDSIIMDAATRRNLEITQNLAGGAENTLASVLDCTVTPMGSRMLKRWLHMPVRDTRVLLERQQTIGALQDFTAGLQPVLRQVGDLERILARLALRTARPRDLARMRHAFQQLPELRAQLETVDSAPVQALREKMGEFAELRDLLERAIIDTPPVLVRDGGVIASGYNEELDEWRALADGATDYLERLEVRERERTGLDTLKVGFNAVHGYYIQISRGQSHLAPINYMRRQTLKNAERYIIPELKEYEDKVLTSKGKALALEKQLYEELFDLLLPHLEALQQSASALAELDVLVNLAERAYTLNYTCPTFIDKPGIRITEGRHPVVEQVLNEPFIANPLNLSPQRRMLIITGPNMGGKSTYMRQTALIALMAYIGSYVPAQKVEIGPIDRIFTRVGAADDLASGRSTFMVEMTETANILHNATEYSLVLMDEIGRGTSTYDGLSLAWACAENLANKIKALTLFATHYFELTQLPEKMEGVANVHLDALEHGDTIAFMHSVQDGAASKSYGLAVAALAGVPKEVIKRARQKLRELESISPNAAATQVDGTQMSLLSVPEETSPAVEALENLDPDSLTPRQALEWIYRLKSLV
The data set is described as follows: native PAGE shift.

The target of the next data set is T2, MutS (Pseudomonas aeruginosa, UniProt Q9HY08 1-855).
T2 sequence: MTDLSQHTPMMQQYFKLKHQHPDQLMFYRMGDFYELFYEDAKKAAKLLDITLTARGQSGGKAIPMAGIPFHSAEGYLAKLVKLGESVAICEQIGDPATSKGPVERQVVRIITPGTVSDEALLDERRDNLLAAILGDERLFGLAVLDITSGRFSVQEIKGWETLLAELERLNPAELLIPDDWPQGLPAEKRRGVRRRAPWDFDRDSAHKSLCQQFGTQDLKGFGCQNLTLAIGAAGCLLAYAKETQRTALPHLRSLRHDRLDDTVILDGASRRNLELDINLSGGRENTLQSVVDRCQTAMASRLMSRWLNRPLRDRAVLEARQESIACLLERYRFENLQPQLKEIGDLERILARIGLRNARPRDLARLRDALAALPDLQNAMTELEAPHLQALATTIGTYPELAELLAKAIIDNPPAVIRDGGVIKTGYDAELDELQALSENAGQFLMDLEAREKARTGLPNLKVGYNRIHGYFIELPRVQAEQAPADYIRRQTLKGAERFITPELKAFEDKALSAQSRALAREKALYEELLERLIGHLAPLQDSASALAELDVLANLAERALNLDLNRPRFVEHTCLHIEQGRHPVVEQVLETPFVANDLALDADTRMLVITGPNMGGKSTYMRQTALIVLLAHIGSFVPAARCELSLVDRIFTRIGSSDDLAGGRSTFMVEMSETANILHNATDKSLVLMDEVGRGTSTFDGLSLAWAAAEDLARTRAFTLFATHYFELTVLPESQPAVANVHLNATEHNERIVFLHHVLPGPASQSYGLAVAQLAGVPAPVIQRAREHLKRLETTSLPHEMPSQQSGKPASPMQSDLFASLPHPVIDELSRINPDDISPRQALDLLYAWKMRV
The data set is described as follows: SPR. A general note: Surface plasmon resonance follows binding to a sensor surface in real time, without labels.

In data set [2] the target is T1, MutS E. coli. In words: native PAGE shift. The source holds these as a separate data set.

B1: GT-pDNA (GT 8 nt from 3'-OH) (dsDNA)
DNA 1: ATGTGAATCAGTATGGTTGCTATCTGC
DNA 2: ATTTCCTTCAGCAGATAGTAACCATACTGATTCACAT
With B1, the binding result with MutS E. coli [1] is “binds”.

B2: dsDNA (dsDNA)
DNA 1: ATGTGAATCAGTATGGTTACTATCTGCTGAAGGAAAT
DNA 2: ATTTCCTTCAGCAGATAGTAACCATACTGATTCACAT
For B2, the Kd with MutS was found to be 1.96 µM.

B3: GT-dsDNA (GT 18 nt from 3' end) (dsDNA)
DNA 1: ATGTGAATCAGTATGGTTGCTATCTGCTGAAGGAAAT
DNA 2: ATTTCCTTCAGCAGATAGTAACCATACTGATTCACAT
As for B3, the binding result with MutS E. coli [2] is reported as “binds”.

Broadly, the Kd is the free concentration of one partner at which half of the binding sites on the other are occupied at equilibrium, for simple one-to-one binding. A low value points to higher affinity.
